B1: Recombinant human versican G3 domain (domain or fragment)
chain: not shown
B2: Recombinant human versican isoform V3 (natural protein)
chain: not shown
notes: Versican isoform V3, human; contains only the N-terminal G1 and C-terminal G3 domains and lacks the GAG domains; also called V3 isoform; source: bought: R&D Systems
B3: Recombinant human versican G1 domain (domain or fragment)
chain: not shown
modifications: Limits taken by convention: mature N-terminus through Ig-like V, Link 1 and Link 2 (Abcam ab152303 limits not given); tag omitted

These binders were tested against T1, Rat tail type I telo-collagen (rat, UniProt P02454 152-1207; P02466 86-1125) (assay: ELISA; solid-phase binding assay: proteoglycan or versican domain coated on a 96-well plate (0.25 ug/ml; 0.05-1 ug/ml in Fig. 2A) at 4 C overnight, blocked with 3% BSA in TTBS or casein; rat tail type I collagen 0.1-5 ug/ml in 1% BSA/PBS overnight at RT; detected with biotin-conjugated anti-collagen I antibody, streptavidin-HRP and TMB; Kd from Scatchard plot). Details: both partners purified.
T1 construct: Type I collagen alpha-1 chain, rat tail telo-collagen; Type I collagen alpha-2 chain, rat tail telo-collagen; Extracted from tissue; Telopeptides are kept (telo-collagen); also called type I collagen; full-length collagen; source: bought: Corning (rat tail)
T1 sequence (P02454 152-1207, chain 1 of 2): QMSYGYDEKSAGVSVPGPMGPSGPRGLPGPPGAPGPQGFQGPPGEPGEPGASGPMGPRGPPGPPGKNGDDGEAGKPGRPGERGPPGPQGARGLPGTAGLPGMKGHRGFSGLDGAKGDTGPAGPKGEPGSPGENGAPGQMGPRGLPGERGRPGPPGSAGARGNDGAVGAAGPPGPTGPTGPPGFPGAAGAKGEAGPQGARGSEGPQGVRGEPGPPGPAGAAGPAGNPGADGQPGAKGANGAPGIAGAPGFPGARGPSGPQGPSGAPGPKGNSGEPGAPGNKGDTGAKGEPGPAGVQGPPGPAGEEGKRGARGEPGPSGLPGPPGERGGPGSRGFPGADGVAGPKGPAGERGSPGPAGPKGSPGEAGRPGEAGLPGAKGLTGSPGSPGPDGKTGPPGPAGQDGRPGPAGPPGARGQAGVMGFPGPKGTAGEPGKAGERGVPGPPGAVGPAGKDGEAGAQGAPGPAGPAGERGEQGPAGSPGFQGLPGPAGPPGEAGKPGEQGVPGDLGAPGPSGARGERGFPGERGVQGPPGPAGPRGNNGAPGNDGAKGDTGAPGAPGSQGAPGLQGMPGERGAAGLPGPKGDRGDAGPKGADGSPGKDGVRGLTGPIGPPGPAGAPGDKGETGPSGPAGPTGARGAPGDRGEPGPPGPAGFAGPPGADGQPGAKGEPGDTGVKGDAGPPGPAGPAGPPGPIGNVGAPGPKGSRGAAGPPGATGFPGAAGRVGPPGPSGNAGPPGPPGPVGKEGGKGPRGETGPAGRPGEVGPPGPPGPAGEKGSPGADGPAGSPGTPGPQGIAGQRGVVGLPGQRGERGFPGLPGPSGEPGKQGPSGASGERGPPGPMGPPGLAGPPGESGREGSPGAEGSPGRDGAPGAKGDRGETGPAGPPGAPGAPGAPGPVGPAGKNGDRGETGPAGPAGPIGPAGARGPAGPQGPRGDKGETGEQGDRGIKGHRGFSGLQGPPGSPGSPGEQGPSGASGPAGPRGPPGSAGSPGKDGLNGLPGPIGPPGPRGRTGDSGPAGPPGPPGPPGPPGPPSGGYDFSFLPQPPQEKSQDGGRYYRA
T1 sequence (P02466 86-1125, chain 2 of 2): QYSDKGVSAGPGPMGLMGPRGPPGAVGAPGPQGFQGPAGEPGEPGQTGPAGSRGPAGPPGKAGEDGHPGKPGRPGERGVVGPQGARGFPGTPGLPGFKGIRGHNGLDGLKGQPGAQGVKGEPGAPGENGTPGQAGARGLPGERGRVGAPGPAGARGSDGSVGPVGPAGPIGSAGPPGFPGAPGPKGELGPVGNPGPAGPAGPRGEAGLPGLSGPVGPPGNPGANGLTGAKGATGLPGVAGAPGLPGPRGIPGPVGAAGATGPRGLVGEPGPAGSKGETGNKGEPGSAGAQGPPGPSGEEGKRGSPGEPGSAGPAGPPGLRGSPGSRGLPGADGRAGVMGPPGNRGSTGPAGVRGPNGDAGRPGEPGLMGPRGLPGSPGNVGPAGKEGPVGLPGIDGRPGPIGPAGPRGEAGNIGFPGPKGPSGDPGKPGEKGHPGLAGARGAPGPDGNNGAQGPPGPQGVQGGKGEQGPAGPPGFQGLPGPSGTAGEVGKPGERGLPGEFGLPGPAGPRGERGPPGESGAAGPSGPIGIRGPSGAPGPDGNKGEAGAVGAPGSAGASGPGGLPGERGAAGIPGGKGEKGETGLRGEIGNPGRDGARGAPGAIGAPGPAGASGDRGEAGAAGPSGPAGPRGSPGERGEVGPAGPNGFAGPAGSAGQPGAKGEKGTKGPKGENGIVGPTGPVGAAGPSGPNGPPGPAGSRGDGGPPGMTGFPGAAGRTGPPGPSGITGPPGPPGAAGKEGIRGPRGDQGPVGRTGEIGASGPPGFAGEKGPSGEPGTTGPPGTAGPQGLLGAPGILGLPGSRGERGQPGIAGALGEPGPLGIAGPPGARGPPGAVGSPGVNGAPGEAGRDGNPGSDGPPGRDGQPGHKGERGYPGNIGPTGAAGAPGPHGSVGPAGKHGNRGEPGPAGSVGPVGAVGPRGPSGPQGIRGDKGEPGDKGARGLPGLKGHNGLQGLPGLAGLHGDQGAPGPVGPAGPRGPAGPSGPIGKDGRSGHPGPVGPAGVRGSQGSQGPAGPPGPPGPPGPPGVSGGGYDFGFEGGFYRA
A Kd of 3.2 nM was found for B1 in this work. A Kd of 0.7 nM was found for B2 in this work. A Kd of 0.9 nM was found for B3 in this work.

Source: paper PMC11626796, “Versican binds collagen via its G3 domain and regulates the organization and mechanics of collagenous matrices” (The Journal of Biological Chemistry, 2024)
